Source: paper PMC5704011

T1: human recombinant VEGFR2 (human), P35968
T1 chain: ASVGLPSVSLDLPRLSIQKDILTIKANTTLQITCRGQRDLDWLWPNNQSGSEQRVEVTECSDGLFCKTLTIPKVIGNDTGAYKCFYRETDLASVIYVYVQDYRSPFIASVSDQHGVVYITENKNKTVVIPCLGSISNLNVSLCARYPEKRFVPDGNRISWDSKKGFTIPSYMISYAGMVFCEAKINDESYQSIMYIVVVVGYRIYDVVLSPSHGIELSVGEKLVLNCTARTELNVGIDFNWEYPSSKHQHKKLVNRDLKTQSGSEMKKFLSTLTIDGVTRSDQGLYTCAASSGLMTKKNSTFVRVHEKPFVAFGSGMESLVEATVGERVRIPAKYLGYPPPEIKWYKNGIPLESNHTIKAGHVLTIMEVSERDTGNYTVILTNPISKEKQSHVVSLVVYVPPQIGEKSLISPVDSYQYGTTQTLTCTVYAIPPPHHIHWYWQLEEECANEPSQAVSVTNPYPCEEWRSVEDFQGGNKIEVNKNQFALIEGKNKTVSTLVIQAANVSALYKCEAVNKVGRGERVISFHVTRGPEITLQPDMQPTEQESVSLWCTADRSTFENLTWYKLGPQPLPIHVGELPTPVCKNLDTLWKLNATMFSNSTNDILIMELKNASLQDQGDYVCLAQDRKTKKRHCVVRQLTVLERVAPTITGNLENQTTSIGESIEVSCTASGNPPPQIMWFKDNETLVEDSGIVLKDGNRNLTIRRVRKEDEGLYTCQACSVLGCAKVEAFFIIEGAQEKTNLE

T2: human recombinant PDGFRβ (human), P09619
T2 chain: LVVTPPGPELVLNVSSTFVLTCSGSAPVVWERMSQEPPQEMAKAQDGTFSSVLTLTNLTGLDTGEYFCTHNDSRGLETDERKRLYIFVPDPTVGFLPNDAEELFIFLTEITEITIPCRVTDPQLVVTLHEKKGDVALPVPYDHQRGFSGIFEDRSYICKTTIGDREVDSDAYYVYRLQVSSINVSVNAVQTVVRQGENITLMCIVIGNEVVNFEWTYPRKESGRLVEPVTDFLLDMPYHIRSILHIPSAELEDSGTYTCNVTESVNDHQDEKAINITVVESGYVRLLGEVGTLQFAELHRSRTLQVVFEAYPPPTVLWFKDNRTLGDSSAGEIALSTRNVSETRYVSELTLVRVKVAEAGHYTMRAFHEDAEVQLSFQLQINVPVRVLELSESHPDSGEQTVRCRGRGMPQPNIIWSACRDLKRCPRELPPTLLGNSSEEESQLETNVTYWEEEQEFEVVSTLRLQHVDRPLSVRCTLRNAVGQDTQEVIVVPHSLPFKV


Legend:
Details in all cases: remark: other sources report otherwise
[1] = target: T1, human recombinant VEGFR2 (human), P35968; assay: SPR; BIAcore 3000, 25 °C, CM5 chip; receptor immobilised by amine coupling (~200-500 R.U.); ligand injected at 10, 20 and 40 nM, 30 uL/min, 10 min dissociation; HBS-EP pH 7.4 (10 mM HEPES, 3 mM EDTA, 150 mM NaCl, 0.005% TWEEN-20); angiopoietin-4 reference cell subtracted; global 1:1 Langmuir fit; χ2-to-Rmax > 1.0 or negative association curves taken as no true interaction
[2] = target: T2, human recombinant PDGFRβ (human), P09619; assay: SPR; BIAcore 3000, 25 °C, CM5 chip; receptor immobilised by amine coupling (~200-500 R.U.); ligand injected at 40, 20 and 10 nM in HBS-EP pH 7.4 (10 mM HEPES, 3 mM EDTA, 150 mM NaCl, 0.005% TWEEN-20); angiopoietin-4 reference cell subtracted; global 1:1 Langmuir fit; χ^2-to-Rmax < 1.0 taken as a true interaction
[3] = target: T1, human recombinant VEGFR2 (human), P35968; assay: as above

Binder | koff [1] | kon [1] | Kd [2] | Kd [3]
human recombinant PDGF-CC, Q9NRA1 23-345 (ligand, here or on the partner: disulfide-linked homodimer; limits not given, active growth factor domain after cleavage at Arg234 taken by convention) VVDLNLLTEEVRLYSCTPRNFSVSIREELKRTDTIFWPGCLLVKRCGGNCACCLHNCNECQCVPSKVTKKYHEVLQLRPKTGVRGLHKSLTDVALEHHEECDCVCRGSTGG | 2.6e-05 s⁻¹ | 36000 M⁻¹ s⁻¹ | – | –
human recombinant PDGF-CC, Q9NRA1 235-345 (ligand) VVDLNLLTEEVRLYSCTPRNFSVSIREELKRTDTIFWPGCLLVKRCGGNCACCLHNCNECQCVPSKVTKKYHEVLQLRPKTGVRGLHKSLTDVALEHHEECDCVCRGSTGG | – | – | 1.9 nM | 0.07 nM
